# Measured values reported in the nanobody polyreactivity screen of Harvey et al. (2022).
# Assay: yeast display, Sf9 membrane polyspecificity reagent, FACS + sequencing; frameworks hold sequencing errors
# Procedure, shortened: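 After 36–48 hours of galactose induction, yeast (Saccharomyces cerevisiae BJ5465) displaying a synthetic nanobody library were stained at 4 °C for 1 hour with 10% biotinylated, detergent-solubilized Sf9 membrane reagent. Streptavidin microbeads enriched the stained cells before FACS sorting into low and high (top ~1%) gates on anti-HA and streptavidin fluorescence. Each clone's polyreactivity label reflects its gate of origin.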
row,Sequence,polyreactivity (PSR sort gate)
1,QVQLVESGGGLVQAGGSLRLSCAASVRTFKWYAMGWYRQAPGKERELVAGISRGAGRTYYADSVKWRFTMSRDNAKNTVYLQMNSLKPEDTAVYYCAAVPSYHSTSPFYYWGQGTQVTVSS,high polyreactivity
2,QVQLVESGGGLVQAGGSRRLSCAASGRIFDTYTMGWYRQAPGKERELVAAITTGGSTYYADSVKGRFTISRDNAMNTVYLQMNSLKPEDTAVYYCAARYRSIIRYYYWGQGTQVTVSS,high polyreactivity
3,QVQLVESGGGLVQAGGSLLLSCAASGLTFVANAMGWYSQAPGKERELVARISSSGGSTYYADSVKGRFTISRDNAKNTVYLQMNSLKPEDTAVYYCTARAVRWYYSMNYWGQGTQVTVSS,high polyreactivity
4,QVQLVESGGGLVQAGGSLRLSCAASGRIFSSNVMGWYRQAPGKERELVAAITSGGSTYYADSVKGRFTISRDNAKNTVYLQMNSLKPEDTAVYYCAASYWVLRYRYDYWGQGTQVTVSS,high polyreactivity
5,QVQLVESGGGLVQAGGSLRLSCDASGRIFLDYVMGWYRQAPGKERELVAAISWSGDRTDYADSVKGRFTISRDNAKNTVYLQMNSLKPEDTAVYYCATTWYFAYSDDYKFDYWGQGTQVTVSS,low polyreactivity
6,QVQLVESGGGLVQAGGSLRLSCAASGRIFPKYAMGWYRQAPGKERELVAAIRWSGGNTYYADSVKGRFTISRDNAKNTVYLQMNSLKPEDTAVYYCAATPYVSKYYYFGHDYWGQGTQVTVSS,high polyreactivity
7,QVQLVESGVRLVQAGGSLRLSCASSAITFGKNAMGWYRQAPGTESELVAAITRDGGTNYADSVKGRFTISRDNAMNTVYLHMNILKPEDTAVYYCAKRAYIYYGRYDYWGQGTQVTVSS,low polyreactivity
8,QVQLVESGGGLVQAGGSIRLSCAASGITFYRNAMGWYRQAPGKEKELVAAITWNGGRTYYADSVKGRFTISRDNAKNTVYLQMNSLKPEDTAVYYCAAAYPTYRHYYWGQGTQVTVSS,low polyreactivity
9,QVQLVESGGGLVQAGGSLRLSCAASGSIFGVNVMGWYRQAPGKERELVASISGGGSTDYADSVKGRFTISRDNAKNTVYLQMNSLKPEDTAVYYCNAKYWWSNYYWGQGTQVTVSS,low polyreactivity
10,QVQLVESGGALVQAGGSLRLSCAASGYTFFYYAMGWYRQARGKERVLVAIDLNGGSTYYADSVKGRFTISRDNEKNTVYLQINSLKPEDTAVYYCNAKTSIGTWVGDDYWGQGTQVTVSS,low polyreactivity
11,QVQLQESGGGLVQAGGSLRLSCEASGSISHYIFMGWYRQAQGKEREFVAGIGYGGTTNYADSVKGRFTISRDNAKNTVYLQMNSLKPEDTAMYYCAAREATEFYLYYWGQGTQVTVSS,low polyreactivity
12,QVQLVESGGGLVQAGGSLRLSCPASGSTIPVNAMVWYRQAPGKERELVAAIRSSTGRTYYADSVKGRFTTSRDNAKNTVYLQMNSLKPEDTAVYYCAADYRYNRGITSNKDYDYWGQGTQVTVSS,low polyreactivity
13,QVQLVESGGGLVQAGGSLRLSCAASGGIFYLYAMGWYRQAPGKERELVASINWRSASTYYADSVKGRFTISRDNAKNTVYFQMNSLKPEDTAVYYCNVQWYGGYDYWGQGTQVTVSS,low polyreactivity
14,QVQLVESGGGLVQAGGSLRLSCAASGIIFSGYARGWSRQAPGKERELVAVISSSGGGTYYADSVKGRFTISRDNAKNTVYLHMNSLKPEDTAVYYCAARGREAIHGYWGQGTQVTVSS,high polyreactivity
15,QVQLVESGGGLVQAGGSLRLSCAASGSIFPYYAMGWYRQAPGKERELVAAISDSGDSTYYADSVKGRFTISRDNAKNTVYLQMNSLKPEDTAVYYCAADQTSSYYDPWGDYWGQGTQVTVSS,low polyreactivity
16,QVQLVESGGGLVQAGGSLRLSCAASGFIFSYYAMGWYRQAPGKERELVAAITWSGGGTYYADSVKGRFTISRDNAKNTVYLQMNSLKPEDTAVYYCAAERVYPDGEYWGQGTQVTVSS,high polyreactivity
17,QVQLVESGGGLVQAGGSLRLSCAASGSTFSSNAMGWYRQAPGKERELVAAINRTGNTYYADSVKGRFTISRDNAKNTVYLQMNSLKPEDTAVYYRNTVLNLYRGGGYWGQGTQVTVSS,low polyreactivity
18,QDQLVESGGGLVQAGGSLRLSCAASGFIFNKNAMGWYRQAPGKERELVAAITFGGGTTYYADSVKGRFTISRDNAKNTVYLQMNSLKPEDTAVYYCAKRYWRHPVFYLYDYWGQGTQVTVSS,high polyreactivity
19,QVQLVESGGGLVQAGGSLRLSSAASGSTFSLYTMGWYRQEPGKERELVAAITWTGGSTYYADSVKGRFTISRDNAKNTVYLQMNSLKPEDTAVYYCAAVSRLTGSRESQLIRSRMYYWGQGTQVTVSS,high polyreactivity
20,QVQLVESGGGLVQAGGSIRLSCAASGRIFAYNPMGWSRQAPGKERELVAVITSGRSTNYADSVKGRFTISRDNEKNNVYLQMNSLKPVDTAFYYCAKRPYGRSGGSRYDYWGQGTQGTVSS,high polyreactivity
21,QVQLVESGGGLVQAGGSLRLSCAASGLTIRYNAMGWYRQAPGKERELVARISRNGGRTYYADSVKGRFTISRDNAKNTVYLQMKSLKPEDTAVNYCNVVYFVTTSPGYDYWGQGTQVTVSS,high polyreactivity
22,QVQLVESGGGLVQAGGSLRLTCAASGYIFYRYALGWYRKAPGKERELVAAINSGGSTYYADSVKGRFTISRDNAKNTVYLQMNSLKPEDTAVYYCNVLGWWHVWVYDYWGQGTQVTVSS,high polyreactivity
